Data set [1] deals with Recombinant TFPI-2 (novel human Kunitz-type inhibitor encoded by clone J-2-11, expressed in BHK570 cells and purified from conditioned medium).
Data set [2] has as its target T1, Recombinant TFPI-2 (novel human Kunitz-type inhibitor encoded by clone J-2-11, expressed in BHK570 cells and purified from conditioned medium).
T1 chain: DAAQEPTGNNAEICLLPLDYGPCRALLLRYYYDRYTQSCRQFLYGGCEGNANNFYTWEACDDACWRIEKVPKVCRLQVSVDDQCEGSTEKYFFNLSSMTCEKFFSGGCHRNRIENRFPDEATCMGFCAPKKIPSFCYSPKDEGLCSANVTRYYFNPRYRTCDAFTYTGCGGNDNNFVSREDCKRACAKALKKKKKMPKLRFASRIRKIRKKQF

Consider Human factor Xa, for which the “amidolytic activity of 20 nM factor Xa towards chromogenic substrate S-2222 (absorbance at 405 nm)” value in data set [1] is “Recombinant TFPI-2 was shown to weakly inhibit the amidolytic activity of 20 nM factor Xa towards the chromogenic substrate S-2222 in a dose-dependent manner”.

Turning to Human thrombin, the “amidolytic activity of human thrombin towards chromogenic substrate S-2238 (absorbance at 405 nm)” value in data set [1] is on record as “Recombinant TFPI-2 was shown to have no effect on the amidolytic activity of human thrombin towards S-2238”.

B1: Human factor VIIa/tissue factor complex (recombinant human factor VIIa with recombinant, truncated, human tissue factor apoprotein TF1-219) (protein)
chain 1: ANAFLEELRPGSLERECKEEQCSFEEAREIFKDAERTKLFWISYSDGDQCASSPCQNGGSCKDQLQSYICFCLPAFEGRNCETHKDDQLICVNENGGCEQYCSDHTGTKRSCRCHEGYSLLADGVSCTPTVEYPCGKIPILEKRNASKPQGRIVGGKVCPKGECPWQVLLLVNGAQLCGGTLINTIWVVSAAHCFDKIKNWRNLIAVLGEHDLSEHDGDEQSRRVAQVIIPSTYVPGTTNHDIALLRLHQPVVLTDHVVPLCLPERTFSERTLAFVRFSLVSGWGQLLDRGATALELMVLNVPRLMTQDCLQQSRKVGDSPNITEYMFCAGYSDGSKDSCKGDSGGPHATHYRGTWYLTGIVSWGQGCATVGHFGVYTRVSQYIEWLQKLMRSEPRPGVLLRAPFP
chain 2: SGTTNTVAAYNLTWKSTNFKTILEWEPKPVNQVYTVQISTKSGDWKSKCFYTTDTECDLTDEIVKDVKQTYLARVFSYPAGNVESTGSAGEPLYENSPEFTPYLETNLGQPTIQSFEQVGTKVNVTVEDERTLVRRNNTFLSLRDVFGKDLIYTLYYWKSSSSGKKTAKTNTNEFLIDVDKGENYCFSVQAVIPSRTVNRKSTDSPVECMGQEKGEFRE
With B1, the “amidolytic activity of 20 nM factor VIIa-tissue factor towards chromogenic substrate S-2288 (absorbance at 405 nm)” value in data set [2] was “Recombinant TFPI-2 was shown to inhibit the amidolytic activity of 20 nM factor VIIa-tissue factor towards the chromogenic substrate S-2288 in a dose-dependent manner”.

The values above are taken from patent publication US20020098560.
